According to patent US20160244529A1 (ROTTAPHARM BIOTECH S R L, published 2016):

T1: human Ig1,2 TrkA (recombinant D4-D5 domain of human TrkA receptor) (human, UniProt P04629 191-392)
T1 construct: also called hTrkA Ig1,2; TrkA Ig1,2
T1 chain: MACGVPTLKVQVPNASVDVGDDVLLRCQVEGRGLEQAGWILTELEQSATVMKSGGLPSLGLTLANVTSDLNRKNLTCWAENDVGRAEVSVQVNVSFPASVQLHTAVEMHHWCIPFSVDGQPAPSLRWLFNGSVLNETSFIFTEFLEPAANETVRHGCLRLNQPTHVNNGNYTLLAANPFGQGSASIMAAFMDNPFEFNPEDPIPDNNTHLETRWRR

T2: human p75 immunoadhesin (human; Camelus dromedarius, UniProt P08138 29-250)
T2 construct: extracellular domain; also called hp75-Fc; p75NTR immunoadhesin; not shown: Fc portion (immunoglobulin heavy chain constant region) of IgG2a camel antibody (Camelus dromedarius)
T2 sequence (looked up): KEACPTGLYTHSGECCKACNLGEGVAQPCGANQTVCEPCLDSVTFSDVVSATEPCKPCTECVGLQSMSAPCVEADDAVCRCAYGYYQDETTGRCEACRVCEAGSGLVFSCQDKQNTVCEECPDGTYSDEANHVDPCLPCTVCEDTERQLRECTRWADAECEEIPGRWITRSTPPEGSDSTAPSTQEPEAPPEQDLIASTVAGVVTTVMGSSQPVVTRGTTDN

B1: anti-TrkA scFv CRB0084 (scFv)
scFv: QPVLTQPPSVSVAPRQTATITCGGNYIGSKSVHWYQQKPGQDPVLVVNDDSDRPSGIPERFSGSNSANTATLTISGVEAGDEADYYCQVWDSSTEPVVFGGGTKLTVLSGGSTSGSGKPGSGEGSSGTQVQLQQWGAGLLRPSETLSLTCTVSGGSFSDSYWTWIRQSPGKGLEWIGENNHRGSTNYSPTLRSRLSISIDSSKNQFSLKLSSVTAADTAVYYCARVPYRLRSRIFDVWGQGTMVTVSS
notes: From hSPLINT_09 selection
B2: anti-TrkA scFv CRB0089 (scFv)
scFv: QTVVTQEPSVSGAPGQRVTISCTGSSSIIGAGYEVHWYQHLPGTAPKLLIYDSINRPSGVPDRFSGSKSGTSASLAITGLQAEDEADYYCQSSAIFGGGTKLTVLSGGSTSGSGKPGSGEGSSGTQVQLQESGPGLVKPSQTLSLTCAISGDSVSSNSAAWNWIRQSPSRGLEWLGRTFHRSRWYNEYPVSVRSRITINPDTSNNQFTLQLNSVTPDDTAVYYCARAPVAGLTFDIWGQGTMVTVSS
notes: From hSPLINT_09 selection
B3: anti-TrkA scFv CRB0069 (scFv)
scFv: QPGLTQPPSASGTPGQRVTISCTGSSSNVGAGYTVHWYQQLPGTAPTLLIYDNNNRPSGVPDRFSGSRSGTSASLAITGLRAEDEADYYCQSYDRSRVYVFGTGTKLTVLSGGSTSGSGKPGSGEGSSGTQVQLQQSGPGLVKPSQTLSLTCAISGDSVSSNSAAWNWIRQSPSRGLERLGRTYYRSKWYNDYAESVKSRIIINSGTSKNQFSLHLNSVTPEDTAVYYCGRAKDGWYDAFDIWGQGTTVTVSS
notes: From hSPLINT_09 selection
B4: anti-TrkA scFv CRB0036 (scFv)
scFv: DIVMTQAAPSVPVTPGESVSISCRSSKSLLHSSGITSLYWYLQRPGQSPQLPIYRMSSLASGVPDRFSVSGSGTAFTLRISRVEAEDVGVYYCMQHLEYPLTFGAGTKLELKRSGGSTSGSGKPGSGEGSSGTQVQLQQSGAELLKPGASVKISCKATGYTFSNYWIEWVKQRPGHGLEWIGEILPGSGSAHYSEKFKDKATFTADTSSNTAYMQLSSLTSEDSAVYFCTRSPPNPGYWGQGTSVTVSS
notes: From mSPLINT selection
B5: anti-TrkA scFv CRB0082 (scFv)
scFv: SYVLTQPPSVSVAPGTTARLSCEATKIGSQRLHWYQQKPGQAPVMVISFDSDRPSGIPDRFSGSRSGNTATLTISGVEAGDEADYYCNSRDSSGYHLVFGGGTKLTVLSGGSTSGSGKPGSGEGSSGTQVQLQQSGPGLVKPSQTLSLTCAISGDSVSSFTVAWNWIRQSPSRGLERLGRTYRRSKDYAEYMRSRLTINADTSKNQLSLQLDSVTPDDTAVYYCARGQNSAFDLWGQRTMVTVSS
notes: From hSPLINT_09 selection
B6: anti-TrkA scFv CRB0022 (scFv)
scFv: DIVLTQSPALMSASPGEKVTMTCSASSSVSYMYWYQQKPRSSPKPWIYLTSNLASGVPARFSGSGSGTSYSLTISSMEAEDAATYYCQQWSSNPYTFGGRTRLEIKPSGGSTSGSGKPGSGEDSSGAQVQLQQSGAELVKPGASVELSCTASGFNIKDTYMHWVKQRPEQGLEWIGGIDPANGNTIYVPKFQGKATITADTSSNTAYLQLSSLTSEDTAVYYCARGGYDFDYAMDYWGQGTSVTVSS
notes: From mSPLINT selection

Assays:
[1] = target: T1, human Ig1,2 TrkA (recombinant D4-D5 …); assay: SPR (Biacore X-100); scFv immobilised on CM5 chip, human Ig1,2 TrkA injected
Description: (§1) The antibodies were also shown to be specific for hTrkA and mTrkA by relative binding to the BIACore sensor chips coated with the appropriate antigen. Antibodies were immobilized by ammine coupling to Biosensor CM5 sensorchips (Pharmacia) according to the manufacturers instructions. Anti-TrkA scFv proteins were diluted at 20-50 μg/ml in suitable pre-concentration buffer (at least 2 pH unit below the pI of the scFv in order to get a net positive charge), chosen among the Acetate buffers. The scFvs were immobilized at 100 RU to get a low density immobilization. As binder, the recombinant protein consisting of D4-D5 domain of human and murine TrkA receptor (hTrkA Ig1,2 and mTrkA Ig1,2 respectively) were injected over the immobilized scFv with a contact time of 60 seconds and with a dissociation time of 400 seconds and the assay workflow placed 5 serial dilutions of the TrkA Ig1,2 (starting in the micromolar range and diluting 1:2 each time). The regeneration condition were mild (contact time 30 seconds, 10 mM Glycine pH2). On the basis of the resulting sensorgrams, the concentrations of TrkA Ig1,2 were adjusted to optimize, contact time, dissociation time and regeneration. Data were analysed by Bioevaluation Software (see results on Table II and Table III). The quality of the data fitting were checked by the value of Chi² and of the U-value.
(§2) We have carried out surface plasmon resonance (SPR) analyses to determine the binding kinetics of a panel of isolated anti-TrkA scFvs (SEQ ID NOs: 1, 2, 3, 4, 5, 6, 7, 8, 9, 10, 11, 12, 13, 14, 15 and 16). The scFvs were immobilized on a CM5 chip followed by injections at various concentration of human and murine Ig 1,2 TrkA (SEQ ID NO: 78) and mouse Ig1,2 TrkA (SEQ ID NO: 79).

[2] = target: T3, mouse Ig1,2 TrkA (recombinant D4-D5 domain of murine TrkA receptor) (mouse, UniProt Q3UFB7 193-413); assay: SPR (Biacore X-100); scFv immobilised on CM5 chip, mouse Ig1,2 TrkA injected
T3 construct: also called mTrkA Ig1,2
Description: as §1, §2

human TrkB immunoadhesin = target: T4, human TrkB immunoadhesin (human; Camelus dromedarius, UniProt Q16620 32-430); assay: specificity ELISA, antigens coated at 2 µg/mL, scFv at 50 ug/mL (upper panel) and 5 ug/mL (lower panel), OD 450 nm
T4 construct: extracellular domain; also called hTrkB-Fc; TrkB immunoadhesins; not shown: Fc portion (immunoglobulin heavy chain constant region) of IgG2a camel antibody (Camelus dromedarius)
Description: (§3) FIG. 3. Specificity ELISA of isolated anti-TrkA scFvs versus human TrkA immunoadhesin (hTrkA-Fc), human TrkB immunoadhesins (hTrkB-Fc), human TrkC immunoadhesins (hTrkC-Fc) and human p75 immunoadhesins (hp75-Fc). Human antigens were coated at 2 μg/mL. Anti-TrkA scFvs were used at 50 μg/mL (upper panel) and/or 5 μg/mL (lower panel). The mean absorbance at 450 nm of the experiments performed in duplicate wells is shown with SD indicated by the bars.

human TrkC immunoadhesin = target: T5, human TrkC immunoadhesin (human; Camelus dromedarius, UniProt Q16288 32-429); assay: as above
T5 construct: extracellular domain; also called hTrkC-Fc; TrkC immunoadhesins; not shown: Fc portion (immunoglobulin heavy chain constant region) of IgG2a camel antibody (Camelus dromedarius)
Description: as §3

[3] = target: T6, human TrkA receptor (native, on TF-1 cells) (human, UniProt P04629 33-796); assay: chip-based flow cytometry (Agilent Bioanalyzer 2100) on TF-1 cells expressing human TrkA; scFv at 5 µg/ml per paragraph 159
T6 construct: also called TF1 expressing TrkA receptor; TF-1 cell line expressing human TrkA receptor
Description: FIG. 5. FACS analysis performed with Bioanalyzer 2100. A cell fluid chip-based fluorescent cytometric assay that runs on Bioanalyzer 2100 (Agilent) for fast characterization of small population cell phenotypes was assessed. The assay determines the expression of specific cell surface markers. In this experiment, the specificity of scFvs on TF-1 cell line expressing human TrkA receptor was assessed. Six samples can be analyzed on each chip in one automated process. Results were in good agreement with conventional flow cytometry in quantisation.
10⁶ cells/sample=tot: 6×10⁶ cells are first centrifuged at 350 g for 5 min at room temperature (RT) and wash with 12 ml of Staining Buffer (SB) at RT. The pellet was resuspended in 3 ml of SB at 4° C. and aliquot 0.5 ml of suspension in 1.5 ml conical tubes. Cells were centrifuged again at 350 g for 5 min at 4° C. and the pellet was resuspended in 1 ml HBSS at 4° C. 125 μl 16% p-formaldehyde (final conc 1.7%) was added into each tube and then the sample was incubated for 10 min at 4° C. on tube rotator. After 10 minutes, 75 μl of 10% detergent solution-Tween 20 (final conc 0.6%) was added and the samples were then incubated for 10 min at 4° C. on tube rotator. Samples were then washed once with FACS Buffer (0.8 ml/sample) at 4° C. and then centrifuged at 350 g for 5 min at 4° C. Cells were resuspended with 80 μl/sample of FACS Buffer. 20 μl of a 5× primary antibody solution were added (final concentration of scFvs is 5 μg/ml). After incubation for 1 hour at 4° C. on tube rotator samples were washed with FACS Buffer (0.5 ml/sample) at 4° C. and then centrifuged 5 min at 350 g at 4° C. Cells were resuspended with 80 μl/sample of FACS Buffer. 20 μl of a 5× secondary antibody solution were added. Final concentration of mouse anti-V5 antibody is 0.20 μg/ml. The samples were incubated for 1 hour at 4° C. on tube rotator. After incubation for 1 hour at 4° C. on tube rotator samples were washed with FACS Buffer (0.5 ml/sample) at 4° C. and then centrifuged 5 min at 350 g at 4° C. Cells were resuspended with 80 μl/sample of FACS Buffer. 20 μl of a 5× tertiary antibody solution were added. Final concentration of anti-mouse IgG-Cy5 is 4 μg/ml (1:250 diluted). The samples were incubated for 1 hour at 4° C. on tube rotator.

human p75 immunoadhesin = target: T2, human p75 immunoadhesin; assay: specificity ELISA, antigens coated at 2 µg/mL, scFv at 50 ug/mL (upper panel) and 5 ug/mL (lower panel), OD 450 nm
Description: as §3

T6 sequence (P04629 33-796 limits assumed): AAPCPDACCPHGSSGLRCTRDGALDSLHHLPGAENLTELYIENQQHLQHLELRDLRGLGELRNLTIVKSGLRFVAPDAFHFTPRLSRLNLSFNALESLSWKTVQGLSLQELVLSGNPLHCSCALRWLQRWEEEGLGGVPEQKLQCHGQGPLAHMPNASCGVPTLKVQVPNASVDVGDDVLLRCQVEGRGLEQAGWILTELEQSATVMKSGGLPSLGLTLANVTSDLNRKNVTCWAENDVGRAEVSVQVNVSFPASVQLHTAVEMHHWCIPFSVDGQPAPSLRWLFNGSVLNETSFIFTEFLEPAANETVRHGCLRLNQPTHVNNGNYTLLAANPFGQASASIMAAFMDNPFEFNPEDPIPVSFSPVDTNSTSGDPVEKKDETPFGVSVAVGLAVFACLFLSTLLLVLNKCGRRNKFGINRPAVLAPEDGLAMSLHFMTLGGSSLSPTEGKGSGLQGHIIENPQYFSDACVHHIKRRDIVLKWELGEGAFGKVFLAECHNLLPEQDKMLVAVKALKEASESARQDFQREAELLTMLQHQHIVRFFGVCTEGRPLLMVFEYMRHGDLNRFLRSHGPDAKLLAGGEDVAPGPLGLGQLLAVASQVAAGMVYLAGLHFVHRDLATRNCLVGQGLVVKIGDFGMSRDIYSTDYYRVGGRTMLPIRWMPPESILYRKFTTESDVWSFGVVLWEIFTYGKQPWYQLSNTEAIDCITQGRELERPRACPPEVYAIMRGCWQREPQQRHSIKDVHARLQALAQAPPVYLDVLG
T3 sequence (Q3UFB7 other isoform, or with tags, fused parts or gaps limits assumed): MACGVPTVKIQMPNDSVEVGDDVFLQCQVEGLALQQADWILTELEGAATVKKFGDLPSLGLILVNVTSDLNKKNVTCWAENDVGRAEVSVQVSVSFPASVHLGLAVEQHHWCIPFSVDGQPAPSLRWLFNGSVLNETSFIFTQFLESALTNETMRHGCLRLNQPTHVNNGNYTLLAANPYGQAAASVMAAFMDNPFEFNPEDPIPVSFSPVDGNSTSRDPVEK
T4 sequence (Q16620 32-430): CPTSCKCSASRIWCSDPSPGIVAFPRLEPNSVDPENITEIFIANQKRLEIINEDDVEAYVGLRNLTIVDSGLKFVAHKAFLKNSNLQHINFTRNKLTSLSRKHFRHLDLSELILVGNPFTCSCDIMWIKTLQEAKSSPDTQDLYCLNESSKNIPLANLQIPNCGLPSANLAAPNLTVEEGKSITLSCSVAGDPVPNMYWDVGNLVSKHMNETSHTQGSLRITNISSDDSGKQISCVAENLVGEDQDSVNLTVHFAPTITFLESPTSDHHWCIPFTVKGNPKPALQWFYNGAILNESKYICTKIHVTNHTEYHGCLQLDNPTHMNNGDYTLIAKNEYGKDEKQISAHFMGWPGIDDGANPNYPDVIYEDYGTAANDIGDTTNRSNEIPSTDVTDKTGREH

Binder	Kd [1] [nM]	koff [1] [s⁻¹]	kon [1] [M⁻¹ s⁻¹]	Kd [2] [nM]	koff [2] [s⁻¹]	kon [2] [M⁻¹ s⁻¹]	binding result (human TrkB immunoadhesin)	binding result (human TrkC immunoadhesin)	binding result [3]	binding result (human p75 immunoadhesin)
B1	1700	0.0163	9600	2.18	2.33e-05	10700	no binding (tested: 50 ug/mL)	no binding (tested: 50 ug/mL)	binds	
B2	16.9	7.76e-05	4600	14.2	3.19e-05	2250		no binding (tested: 50 ug/mL)	binds	no binding (tested: 50 ug/mL)
B3	5.7	3.57e-05	6270	1.67	1.02e-05	6120			binds	
B4	13.7	3.75e-05	2730	1.1	7.07e-06	6440			binds	no binding (tested: 50 ug/mL)
B5	42.1	8.79e-05	2090	131	0.000344	2630				
B6	3.2	2.94e-05	9190	1.16	1.09e-05	9430	no binding (tested: 50 ug/mL)	no binding (tested: 50 ug/mL)	binds	no binding (tested: 50 ug/mL)
